In experiment [1] the target is wild type human TGF-β1 (pro-TGF-β1 and latent TGF-β1), expressed in 293 cells (human). The experiment in a line: non-reducing SDS-PAGE and western blot of culture supernatants; cells incubated in serum-free medium for 24 or 48 hours; supernatants analysed by WB under non-reducing conditions with anti-GARP and anti-LAP antibodies. On the technique in general: In western blotting, separated proteins are transferred to a membrane and probed.

Experiment [2] has as its target C33S mutant human TGF-β1 (pro-TGF-β1 and latent TGF-β1), expressed in 293 cells (human). The experiment in a line: non-reducing SDS-PAGE and western blot of immunoprecipitates; anti-GARP IP products of cell lysates; SDS-PAGE under non-reducing conditions; WB with anti-LAP antibodies.
The target of experiment [3] is TGF-β1 (pro-TGF-β1 and latent TGF-β1), endogenous in human T cells (human (endogenous in human T cells)). The experiment can be described thus: non-reducing SDS-PAGE and western blot of culture supernatants; cells incubated in serum-free medium for 24 or 48 hours; supernatants analysed by WB under non-reducing conditions with anti-GARP and anti-LAP antibodies.
Experiment [4] concerns the target C33S mutant human TGF-β1 (pro-TGF-β1 and latent TGF-β1), expressed in murine BW5147 T cells (human). The experiment in a line: non-reducing SDS-PAGE and western blot of immunoprecipitates; anti-GARP IP products of cell lysates; SDS-PAGE under non-reducing conditions; WB with anti-LAP antibodies.

Regarding “wild type human TGF-β1 (pro-TGF-β1 and latent TGF-β1), expressed in 293 cells (ligand)”, the stoichiometry N (commonly the number of molecules, sites or subunits per partner or assembly) in experiment [1] turned out to be 2. For the substance “C33S mutant human TGF-β1 (pro-TGF-β1 and latent TGF-β1), expressed in 293 cells (ligand)”, the stoichiometry N in experiment [2] stood at 2.

In experiment [3], “TGF-β1 (pro-TGF-β1 and latent TGF-β1), endogenous in human T cells (ligand)” returned a stoichiometry N of 2.

Turning to “C33S mutant human TGF-β1 (pro-TGF-β1 and latent TGF-β1), expressed in murine BW5147 T cells (ligand)”, in experiment [4], the stoichiometry N was found to be 2.

These data come from publication PMC3787020.
